# Article PMC11805746 (Discover Nano, 2025)
# B1: methemoglobin (oxidized human hemoglobin A) (complex)
# chain 1: not shown
# chain 2: not shown
# Target: IsdB point mutant P173A (IsdB^P173A) (Staphylococcus aureus, UniProt Q2FZF0 41-613, P173A)
# Assay: atomic force spectroscopy
binder,measurement,value
B1,koff,0.0025 s⁻¹
